Results: EP4722370A1

How the values were obtained:
[1] = target: his-tagged DLL3 antigen protein (UniProt Q9NYJ7); test: flow cytometry; transduced T cells with 3 ug/ml his-tagged DLL3, AF647 secondary antibody
[2] = target: his-tagged DLL3 antigen protein (UniProt Q9NYJ7); test: flow cytometry; transduced T cells, method of the earlier example (his-tagged DLL3 staining)

Sequence of UniProt Q9NYJ7 (Q9NYJ7 27-492 limits assumed): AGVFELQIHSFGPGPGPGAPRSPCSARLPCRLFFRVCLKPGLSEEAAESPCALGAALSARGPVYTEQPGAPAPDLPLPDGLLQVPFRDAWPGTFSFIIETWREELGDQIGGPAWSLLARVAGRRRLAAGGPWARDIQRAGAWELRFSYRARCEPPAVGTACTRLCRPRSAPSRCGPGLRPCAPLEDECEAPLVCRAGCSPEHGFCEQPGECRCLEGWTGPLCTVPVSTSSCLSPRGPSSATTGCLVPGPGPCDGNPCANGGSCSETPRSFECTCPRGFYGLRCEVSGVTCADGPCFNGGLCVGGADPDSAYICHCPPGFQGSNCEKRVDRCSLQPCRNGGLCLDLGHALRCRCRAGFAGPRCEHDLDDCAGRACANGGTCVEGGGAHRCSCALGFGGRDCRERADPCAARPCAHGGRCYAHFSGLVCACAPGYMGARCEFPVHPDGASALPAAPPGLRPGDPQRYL

CAR expression level (% of T cells stained with his-tagged DLL3 antigen protein) [1]: 69%
CAR expression level (% of T cells stained with his-tagged DLL3 antigen protein) [2]: 74%
B1: DLL3-CAR09 (protein)
chain: DIVMTQSPLSLPVTPGEPASISCRASQTISDYLHWYLQKPGQSPQLLIKYASQSISGVPDRFSGSGSGSDFTLKISRVEAEDVGVYYCQQGHSFPLTFGQGTKLEIKGGGGSGGGGSGGGGSEVQLVQSGAEVKKPGASVKVSCKASGYTFTSYWMHWVRQAPGQRLEWMGTIYPGNSDTRYNQKFKDRVTITADTSASTAYMELSSLRSEDTAVYYCTRSYDYGDLDYWGQGTTVTVSSAAAIEVMYPPPYLDNEKSNGTIIHVKGKHLCPSPLFPGPSKPFWVLVVVGGVLACYSLLVTVAFIIFWVRSKRSRLLHSDYMNMTPRRPGPTRKHYQPYAPPRDFAAYRSRVKFSRSADAPAYQQGQNQLYNELNLGRREEYDVLDKRRGRDPEMGGKPRRKNPQEGLYNELQKDKMAEAYSEIGMKGERRRGKGHDGLYQGLSTATKDTYDALHMQALPPR
